{
  "source": "patent CN114984207A",
  "about": "(ZHEJIANG TERUISI PHARMACEUTICAL INC, dated 2022)",
  "key": {"[1]": {"target": "T1, PD-1蛋白 (冻干, fortebio assay) (UniProt Q15116 25-167, limits assumed)", "T1 construct": "also called 抗原PD-1蛋白; 冻干PD-1蛋白", "T1 sequence (Q15116 25-167 limits assumed)": "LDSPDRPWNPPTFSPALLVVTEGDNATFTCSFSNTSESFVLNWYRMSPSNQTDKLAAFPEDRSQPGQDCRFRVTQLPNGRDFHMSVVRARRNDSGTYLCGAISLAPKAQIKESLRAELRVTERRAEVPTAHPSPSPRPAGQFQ", "assay": "BLI (Octet K2), antibody captured on Protein A sensor, PD-1 protein as analyte from 50 nM, 2-fold dilutions"}, "人PD-1蛋白(Acro PD1-HB2F2)": {"target": "T2, 人PD-1蛋白(Acro PD1-HB2F2) (human, UniProt Q15116 25-167, limits assumed)", "T2 construct": "Bought protein coated on the ELISA plate; also called 抗原PD-1蛋白; human PD-1 protein", "T2 sequence (Q15116 25-167 limits assumed)": "as above", "assay": "ELISA, human PD-1 protein coated at 20 ng/mL, antibody titrated from 1000 ng/mL"}},
  "data": [
    {"binder": "抗PD-1纳米抗体 N7 (Fc fusion) QVQLQESGGGLVQPGGSLRLSCAASGSTYLRFSMGWFRQVPGKEREGVAAIGGDGRTSYADSVKGRFTISKDNSKNTLYLDMNSLRAEDTAVYYCAAAVLLDGSFSLLAPLVPYKYDYWGQGTLVTVSSERKSSVECPPCPAPEFLGGPSVFLFPPKPKDTLMISRTPEVTCVVVDVSQEDPEVQFNWYVDGVEVHNAKTKPREEQFNSTYRVVSVLTVLHQDWLNGKEYKCKVSNKGLPSSIEKTISKAKGQPREPQVYTLPPSQEEMTKNQVSLTCLVKGFYPSDIAVEWESNGQPENNYKTTPPVLDSDGSFFLYSRLTVDKSRWQEGNVFSCSVMHEALHNHYTQKSLSLSLGK", "values": [
      {"measurement": "kon", "setting": "[1]", "value": 274000, "unit": "M⁻¹ s⁻¹"},
      {"measurement": "EC50", "setting": "人PD-1蛋白(Acro PD1-HB2F2)", "value": 9.98, "unit": "ng/mL"}
    ]}
  ]
}
